# Results published in a protein production outcome set (Wang et al. 2014).
# Test: label from the status in PepcDB records
row,Sequence,protein production
1,MTSQVSSTTEQADEPVVGEQRKPAGAKDVRRLDRVIIRFAGDSGDGMQLTGDRFTSETASFGNDLSTLPNFPAEIRAPAGTLPGVSSFQLHFADHDILTPGDAPNVLVAMNPAALKANVSDLPRGAEVIVNTDEFTKRAMQKVGYGTSPLEDGSLDGYSVHPVPLTTLTVEALKEFELSRKEAERSKNMFALGLLSWMYHRPTEGTEKFLTTKFAKKPAIAAANIAAFRAGWNFGETTEDFAVSYEVAPAQSAFPAGTYRNISGNLALSYGLIAASRQADLPLYLGSYPITPASDILHELSKHKNFGVRTFQAEDEIAGIGAALGAAFGGSLAVTTTSGPGVALKSETIGLAVSLELPLLVVDIQRGGPSTGLPTKTEQADLLQAMYGRNGEAPVPVVAPRTPADCFEAAIEAARIALTYRTPVFLLSDGYLANGSEPWRIPETDGLPDLRVRFAQGPNHTLDDGTEVFWPYKRDPGTLARPWAIPGTPGLEHRIGGIEKQDGTGNISYDPANHDFMVRTRQAKIDGIDVPDIEVDDPDGASALVLGWGSTYGPITAAVRRLRTAGESIAQAHLRHLNPFPSNLGAVLKGYDKVVIPEMNLGQLATLIRAKYLVDAHSYNQVNGMPFKAEQLATALKEAIDD,failed
2,MTSSFTDYCKFFNRILSEVQETQEQAIIKGAHLVSEAVMNGGRFYVFGSGHSHMIAEEIYNRAGGLALVTAILPPELMLHERPNKSTYLERIEGLSKSYLKLHQVTNKDVIMIISNSGRNTVPVEMAIESRNIGAKVIAMTSMKHSQKVTSRHKSGKKLYEYADVVLDNGAPVGDAGFQIANSEIYSGATSDSIGCFLAQALIVETLHLLVQQGFEPPVFKSSNVDGADLYNDKIFNEYVKW,not failed
3,MTSSINSSPLNAIADQALGLDDAAVPAAIEPASDEPSFASLGLSPEIVSALEAAGYVKPTPVQQRAIPAGIAGRDLLVSSPTGSGKTAAFMLPAIERFAQLQKTLAQQPRTPREPSQGDRRVRRPQPVARPGLLVLTPTRELAMQVTTAASTYGKHLKRLRTVSILGGVAYGQQLMLLAKNPEILVATPGRLLDHLERGRIDLSELKMLVLDEADRMLDMGFIDDIETIVAATPASRQTMLFSATLDGKIGSLTGRLLKDPERIEIQQRLESRTNIAQTVHYVDDRDHKDRLLDHLLRDDALDQAIIFTATKIDADQLAGRLADAGFESAALHGDLPQGARNRTIRALRERRVRVLVATDVAARGIDIPGITHVFNYDLPKFAEDYVHRIGRTGRAGRSGTAVSLVHHAEQGALKRIERFVRSPLPVNVIEGFEPRKAPARTGSTGGRGRPGGGNGGRRFGGKPGGGHAGAGRSYGGGNGGGWSGKPSGSRDGGPRRDGQRSSGPRRSNSAS,failed
4,MTTDAPALLPALQARVRETAHARTPAGCPCGAATLADRPDATVVRHAGTVAKAHAADADPAELSLRVTAAARLPGVLLPPLAPAPVDLHGRLVTYWPYGTPVDPEDPDAAPWEAAATLLARLHRTPVPAALPPMRGPAKAARAAARLSDTARDHPATAPVLAAWAALPAWARGEAAMPGPAALCHGDLHLGQLIRHPAPDGPWLLIDVDDLGTGVPAWDLARPAAWYACGLLPPEEWHRFLTAYRAAGGPAVPAEGDPWPALDVPARALTAQTAARAVAKAVLAGRALDEVERSLVDACARMASVRPADPRG,failed
5,MTTEPVDYVSPLVGTQSKHALSTGNTYPAIAMPWGMNFWVAQTGKMGDGWAYTYDADKIRGFKQTHQPSPWINDYGQFAIMPVTGKVVFDQDQRASWFSHKAEVAKPYYYKVYLADHDVTTEIAPTSRAAMFRFTFPESKDSYVVVDAFDNGSYVKVIPEENKIIGYTTKNSGGVPENFKNYFVLVFDKPFTFTAAVTNGNIRPGELEHHHHHH,failed
6,MTTESAWTRWPSREALGREGLSRPRRMLAWTVRALVLAMLLWGAFSSSHVHGWGAVAAAAGVLLAAGASWAFFRTTLQHRLWPSLALIAVLLGIAIVAQTAGFQVPALVIWCGCAVSALERLPLAAALPVTTAALAAYAAVDNDVWLTTAATIAGLFLAGYVLRLDAEARGSAQRLLAQERAARAAETQSAALAERARIAREIHDVLAHSLSAQLVHLEAARLLIERGADREQILGRVVAARGMAREGLAETRQALSALRGEISPLEDFLSELVAFEDGADVTVSGERRLLTAEASQAVRRVAQEALTNVRKHAPGAKVQVKLEYGERQVTLHVRDSGGKPGDLTGSGAGYGLLGMRERAELLGGSLEAGREEKGFVVTLKVPA,failed
7,MTTFNYTNILTQAVDELSESQSYKGLFHQHKDGDPLPSAKSLYKIVELARAIIFPGYFGNSTVNSHTINYHIGVNVETLFGLLTEQILAGLCFGQENSKNATDDNEPCRETASLLAARFISKLPELRRILATDVEAAYYGDPAATCFGEIISCYPAIRAISNYRIAHELLILGVPLIPRFITEMAHSETGIDIHPGAQIGHHFTIDHGTGVVIGATSIIGNNVKLYQGVTLGAKSFPLDNNGNPIKGIPRHPILEDDVIVYSNATILGRVTIGKGATVGGNIWVTENVPAGSRIVQRKNKDELEHHHHHH,not failed
8,MTTFSVIMATYNRGRHILPSIQSVLRQTCRDFELLVVGDCCTDDTADVVRALASPQIRWLNLPERGGSQAFPNNAGIEMSRGRYIAYLGHDDIWAPDHLQALADLFGHTQQPDFAVSGAIFHGPRASNFRWVTGIFDESDTALKHFFPPSSFGHRRDVADRIGKWRHPKEITAPVDADFLLRAARFGMNFVSTQRITVQKFAAGHRYLSYTGHTSDEQERMVRRMARPGYDGYLASELAKAKAAGGYMVVVHPDYERYENGQVSTQNAMAKGVVRPDLRNLRQREVIKQDNSPKALDWVPHQSGGDWVLWAGRNPRPKLLVPFKYAGKARIRLDIRHPLREALTKLKLSVNGQPAVASLGKVRQEGNLWNAQATFETALRRDDHTILELHLTRLQRPAARNGIGVGDMEVTPLGWRSIVAKGTRLLAKFRPAC,failed
9,MTTIDPRSELVDGRRRAGARVDAVGAAALLSAAARVGVVCHVHPDADTIGAGLALALVLDGCGKRVEVSFAAPATLPESLRSLPGCHLLVRPEVMRRDVDLVVTVDIPSVDRLGALGDLTDSGRELLVIDHHASNDLFGTANFIDPSADSTTTMVAEILDAWGKPIDPRVAHCIYAGLATDTGSFRWASVRGYRLAARLVEIGVDNATVSRTLMDSHPFTWLPLLSRVLGSAQLVSEAVGGRGLVYVVVDNREWVAARSEEVESIVDIVRTTQQAEVAAVFKEVEPHRWSVSMRAKTVNLAAVASGFGGGGHRLAAGYTTTGSIDDAVASLRAALGLEHHHHHH,not failed
10,MTTIFIEKATILDAEKLTEIMTRTFDEEEKRWLCGQGDVIDYNIQPPGYSSVEMMRYSIEELDCYKVIMDGKIIGGIIVTISGKSYGRIDRIFVEPVYQGKGIGSYVIKLIEEEYPSIRIWDLETSSRQLNNHHFYKKMGYETIFKSEDEYCYVKRIT,failed
11,MTTILTVFTHAGGAGKTSIAGNIAHEFAQRGQHVLLIDGDPQSNLTTNMGVQDAELHETLFDVLSGDAPLPAPRHVHGFDLIPAVIDLAEVEPSIPGRVGGILALRDALQKESGRWDTVIIDSPPSLGQLAAACALAADALVVPIMTRSKGLNALRGLNRVMPQYHRLRPDLHVAAYVPTMCKSNRKEDSELLGIVREDLPHVTSPIVERGAVWNGAAEKGLPVTVFAPRSKEAEEIRKITSDLVEFLQRNAPERGER,failed
12,MTTPIALRDWRLLAAGCGGLLLLAAAITLHSHWGDFLQWCLATQITLHRYLVMYLLLLNNHQYSGGIWLLVGAFLYGVLHAVGPGHGKFIVTTYLSTNQESLTAARVVPFLGSLLQGVTAILFVFILAVGLNLAAGDLSASRWYVEKISALTIGVFGAYVIFRALQSLWPTKQVIRRLTPAHQHDASCGCGHHGVGQDMQGADWKTRLGVVLAIGVRPCSGAIMILLFANALGIVSWGIAAVMSMALGTALSILGLSLLVHYARHRTVKRLVTNHRPRPWLVPLVKILGGLALILFAVGLFFSVVPISANGDFIAAGC,failed
13,MTTPNRFVAGAIDLGEVKARAEARSQAQRAGQSSVTEVEPTVTITMDNVEEQLIKRSMQVPVVVLIGTPRSPDSEQLRAD,failed
14,MTTPSRRILILVGHPDPAPERFCRALAEAYAQGAMEGGHEVRRADIGSMDIALLESQAAFQVDDAPQSIRDLRADIVWAEHLVLVFPLWLGGAPAKLKAALEQVCRGGFGFEVGPRGWSSKLAGRSARMVLTMGMPSAIFRLVFGSHGLKAVTQGIFMLAGVKPRRASIIGGVEAIGAGGRSRWLKRMGHLGEAAR,failed
15,MTTPTPTPTPTSQSLAAPFAQGVEGVYFDGRSSRDRAATLRVLGSGDLSSGAPLAVLRVAPTDGEPGSEQQWPLRQVQFDPPLAGVRRVVKLPDGGRFETNDDRAITALEAAVGRNRGLRGVRRLESDWGLTLGAVVTLGLFVWGFLTYGLPAMARSAAAATPRSVLTSFDTSAIEVLDNGTFMGPTHLSAARQAQLQREFKDVAQWAGGGYPYRLLLRDGTPQANGDKDSPAPSGSIGTNAFALPGGTVVMTEQLVKLAHSDRELMGVLAHETGHVTHRHSLSSIYQGLGLTLLTTAVTGDLIGASTFAAAVPTWLLKNGYSRQSETQSDEVAGRFLMERYGTTKPLRDVLARLETEDENADENSVKRDDPGAFLQTHPGTAERIRHLREIEQNWPQRRGK,failed
16,MTTRLLQLTRPHYRLLSLPLQKPFNIKRQMSAANPSPFGNYLNTITKSLQQNLQTCFHFQAKEIDIIESPSQFYDLLKTKILNSQNRIFIASLYLGKSETELVDCISQALTKNPKLKVSFLLDGLRGTRELPSACSATLLSSLVAKYGSERVDCRLYKTPAYHGWKKVLVPKRFNEGLGLQHMKIYGFDNEVILSGANLSNDYFTNRQDRYYLFKSRNFSNYYFKLHQLISSFSYQIIKPMVDGSINIIWPDSNPTVEPTKNKRLFLREASQLLDGFLKSSKQSLPITAVGQFSTLVYPISQFTPLFPKYNDKSTEKRTILSLLSTITSNAISWTFTAGYFNILPDIKAKLLATPVAEANVITASPFANGFYQSKGVSSNLPGAYLYLSKKFLQDVCRYRQDHAITLREWQRGVVNKPNGWSYHAKGIWLSARDKNDANNWKPFITVIGSSNYTRRAYSLDLESNALIITRDEELRKKMKAELDNLLQYTKPVTLEDFQSDPERHVGTGVKIATSILGKKL,failed
17,MTTRRLALFDLDHTLLPLDSDYQWADFLARTGRAGDPAEARRRNDDLMERYNRGELTAEQAAEFMLGLLAAHSPVELAAWHEEFMRDVIRPSLTAQAVDVVRGHLAAGDLCALVTATNSFVTAPIARAFGVQHLIATDPEYRDGRYTGRIEGTPSFREGKVVRVNQWLAGMGLALGDFAESYFYSDSVNDVPLLEAVTRPIAANPSPGLREIAQARGWQVIDLFDHLEDAKS,not failed
18,MTTSKVTYQGDLRTSAIHLQSNNEIITDAPVDNQGKGEAFSPTDLLATSLASCMLTIIGIKARDMEIDIAGTTAEVTKVMAADPRRVSEVHIAITFNQELDDKTQKIFYNTALTCPVAKSIHPDIFQKVIIHSKSY,not failed
19,MTTWKELTDNNPAHSENYAQRWRNLAAAGNDIYGEARLIDAMAPRGAKILDAGCGQGRIGGYLSKQGHDVLGTDLDPILIDYAKQDFPEARWVVGDLSVDQISETDFDLIVSAGNVMGFLAEDGREPALANIHRALGADGRAVIGFGAGRGWVFGDFLEVAERVGLELENAFESWDLKPFVQGSEFLVAVFTKK,not failed
20,MTVAPTTHVPPARPAAYRELVRQRNSFTVAMTLTFLVLYFLLPLLAGYNKPLMATKVFGNVTFGYVLAFLEFLMGWVMAAIYVRKARTFDRLALEAQVPGGGA,failed
21,MTVDEWRLLDVSTAFGSGENSVPDFGESADDDAVVVWLVKGEEAVEKLSEIVFGVNLVLENHLKHGLSEI,failed
